In patent publication US20150224205A1:
Several values for one entry are separate records, joined by “and”; a condition that tells them apart may be missing. Identical values can stand only once.

Target: T1, C1-esterase
T1 sequence (P09871 16-688, species assumed, looked up): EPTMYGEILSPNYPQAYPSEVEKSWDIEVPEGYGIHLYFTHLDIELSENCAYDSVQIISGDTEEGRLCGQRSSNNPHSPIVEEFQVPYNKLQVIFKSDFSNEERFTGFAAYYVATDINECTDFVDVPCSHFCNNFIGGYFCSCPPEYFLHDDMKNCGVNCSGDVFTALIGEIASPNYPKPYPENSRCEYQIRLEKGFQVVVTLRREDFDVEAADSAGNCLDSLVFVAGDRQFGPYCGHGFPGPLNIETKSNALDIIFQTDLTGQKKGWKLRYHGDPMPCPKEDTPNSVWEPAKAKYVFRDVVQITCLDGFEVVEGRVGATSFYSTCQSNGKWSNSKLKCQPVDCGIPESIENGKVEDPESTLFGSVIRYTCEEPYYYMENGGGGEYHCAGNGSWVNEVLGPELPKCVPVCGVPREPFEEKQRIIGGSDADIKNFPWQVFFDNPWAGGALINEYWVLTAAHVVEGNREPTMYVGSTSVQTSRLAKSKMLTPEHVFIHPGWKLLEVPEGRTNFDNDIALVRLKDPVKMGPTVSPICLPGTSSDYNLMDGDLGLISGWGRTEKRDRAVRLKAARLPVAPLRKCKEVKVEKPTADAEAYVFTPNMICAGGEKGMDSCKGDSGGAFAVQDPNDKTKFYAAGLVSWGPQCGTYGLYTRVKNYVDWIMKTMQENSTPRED
Test: cell-based or functional assay

5k mPEG-BCN-C1 INH, sequence (P05155 23-500 limits assumed): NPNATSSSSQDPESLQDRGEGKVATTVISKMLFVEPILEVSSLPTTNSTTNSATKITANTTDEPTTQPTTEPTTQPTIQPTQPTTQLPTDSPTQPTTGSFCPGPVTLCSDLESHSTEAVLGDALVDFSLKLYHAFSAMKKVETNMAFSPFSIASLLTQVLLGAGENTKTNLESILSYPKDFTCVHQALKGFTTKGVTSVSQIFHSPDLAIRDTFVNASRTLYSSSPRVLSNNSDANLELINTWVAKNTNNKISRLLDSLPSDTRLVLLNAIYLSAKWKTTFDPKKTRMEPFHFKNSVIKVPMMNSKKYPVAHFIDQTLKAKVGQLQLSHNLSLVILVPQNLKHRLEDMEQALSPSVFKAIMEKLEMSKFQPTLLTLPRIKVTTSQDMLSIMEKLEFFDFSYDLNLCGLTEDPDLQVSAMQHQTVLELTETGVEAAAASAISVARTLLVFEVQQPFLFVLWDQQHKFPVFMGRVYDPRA
ALD-PEG(40 k)-C1 INH, mono PEGylated (PEG#/C1 INH = 1), sequence (P05155 23-500 limits assumed): as above
ALD-PEG2(40 k)-C1 INH, di PEGylated (PEG#/C1 INH = 2), sequence (P05155 23-500 limits assumed): as above
ALD-PEG(40 k)-C1 INH, di PEGylated (PEG#/C1 INH = 2), sequence (P05155 23-500 limits assumed): as above
ALD-PEG2(40 k)-C1 INH, mono PEGylated (PEG#/C1 INH = 1), sequence (P05155 23-500 limits assumed): as above

Row | Substance | % C1 INH Activity [%] | Specific Activity (U/mg) | C1 in activity [U/mg]
1 | ALD-PEG(40 k)-C1 INH, mono PEGylated (PEG#/C1 INH = 1) (from UniProt P05155 23-500) | 67 | 6.1 U/mg and 6.9 U/mg | –
2 | 5k mPEG-BCN-C1 INH (from UniProt P05155 23-500) | 100 | 7.3 U/mg | 3.7
3 | ALD-PEG2(40 k)-C1 INH, mono PEGylated (PEG#/C1 INH = 1) (from UniProt P05155 23-500) | 81 | 7.4 U/mg | –
4 | ALD-PEG(40 k)-C1 INH, di PEGylated (PEG#/C1 INH = 2) (from UniProt P05155 23-500) | 75 | 6.8 U/mg | –
5 | ALD-PEG2(40 k)-C1 INH, di PEGylated (PEG#/C1 INH = 2) (from UniProt P05155 23-500) | 43 | 3.9 U/mg | –
